This assay deals with mouse CD40 on BALB/c thymocytes (mouse) (UniProt P27512). Description: cell-based or functional assay.
UniProt P27512, sequence (P27512 20-289): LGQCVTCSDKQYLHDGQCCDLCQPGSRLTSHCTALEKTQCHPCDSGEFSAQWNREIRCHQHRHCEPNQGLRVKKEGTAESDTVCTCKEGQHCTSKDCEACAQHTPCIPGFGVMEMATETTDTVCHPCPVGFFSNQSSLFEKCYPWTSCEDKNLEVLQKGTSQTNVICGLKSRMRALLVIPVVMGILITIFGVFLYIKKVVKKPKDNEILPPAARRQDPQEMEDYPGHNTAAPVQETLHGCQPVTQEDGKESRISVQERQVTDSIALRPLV

“rat IgG anti-mouse CD40, 1C10 (antibody)” registered an increase in Vα8 expression in gated DP thymocytes of 12% and a percent Vα11+ thymocytes of 3.3%.

For the origin of these results see patent US20050048055A1.
